Blank lines part the entries; values can stand above or below the substance they belong to.
Tests used:
[1] = biological target: PorA in cell envelopes of N. meningitidis strain HB-1 (N. meningitidis (endogenous in HB-1)) (UniProt E6MZM0); assay: semi-native SDS-PAGE; cell envelopes of N. meningitidis HB-1 or of E. coli expressing PorA or PorA-Q, samples not boiled, blot probed with anti-PorA antibody MN5C11G
[2] = biological target: PorA-Q mutant protein (penultimate Lys of PorA substituted by Gln) expressed in E. coli (N. meningitidis) (UniProt E6MZM0); assay: as above
[3] = biological target: Omp85 from Escherichia coli, refolded in vitro from inclusion bodies (E. coli) (UniProt P0A940)
[4] = biological target: Omp85 from Escherichia coli, refolded in vitro from inclusion bodies (E. coli) (UniProt P0A940); remark: listed apart in the source

Substance: PorA in cell envelopes of N. meningitidis strain HB-1 (from UniProt E6MZM0 20-331) (natural protein)
stoichiometry N [1]: 3

Substance: PorA-Q mutant protein (penultimate Lys of PorA substituted by Gln) expressed in E. coli (from UniProt E6MZM0 20-331) (natural protein)
stoichiometry N [2]: 3

increase in conductivity per 0.12-nS Omp85 channel in planar lipid bilayers (voltage ramps); dose-dependent opening at pM concentrations of denatured PhoE, value at 80 pM [3]: 0.067 nS
percent increase in conductivity per 0.12-nS Omp85 channel upon addition of 80 pM denatured PhoE [3]: 56 to 58%
Substance: denatured E. coli PhoE porin (from UniProt P02932 22-351) (natural protein)

increase in conductivity per 0.12-nS Omp85 channel in planar lipid bilayers (voltage ramps) upon addition of 80 pM denatured LamB [3]: 0.069 nS
percent increase in conductivity per 0.12-nS Omp85 channel upon addition of 80 pM denatured LamB [3]: 56 to 58%
Substance: maltoporin LamB from E. coli, denatured (from UniProt P02943 26-446) (natural protein)

increase in conductivity per 0.12-nS Omp85 channel in planar lipid bilayers; dose-dependent opening at μM concentrations of the peptide, value at 96 μM [4]: 0.6 nS
Substance: synthetic peptide corresponding to the C-terminal 12 amino acid residues of PhoE (CterPhoE)
